The text below walks through data of patent publication US20250034266A1 (ZAI LAB SHANGHAI, published 2025).

Test [1] deals with T1, human CCR8 (human, UniProt P51685 1-355).
T1 construct: whole, on cells; also called hCCR8
Kind of test: FACS on CHO-K1-human CCR8 cells.

For test [2], the target named is T2, cynomolgus CCR8 (cynomolgus, UniProt G7NYJ2 1-355).
T2 construct: whole, on cells
The test can be described thus: FACS on HEK293-cynomolgus CCR8 cells.

In test [3] the target is T1, human CCR8. Kind of test: FACS on HuT78 cells (endogenous human CCR8). As to the method: HuT78 cells expressing endogenous human CCR8 were used for determining binding affinities of selected affinity matured anti-CCR8 antibodies. Briefly, a total of […] cells for each well were seeded in 96-well plates and washed with FACS buffer (DPBS containing […]) for once. […] Cells were incubated with 50 μL of diluted antibodies at 4° C. for 1 hour. After primary antibody incubation, cells were washed for 3 times by FACS buffer. Then, cells were stained by Alexa Fbu647 labeled anti-human IgG secondary antibody (Jackson ImmunoResearch, #109606170) at 1:600 dilution in FACS buffer for 0.5 hour at 4° C. After 3 times washed, flow cytometry (Sartourius, iQue3) was performed to measure the binding affinities of antibodies. […]

Test [4] deals with T1, human CCR8. The test can be described thus: FACS, competition with CCL1 on CHO-K1-human CCR8 cells. On the technique in general: In flow cytometry, cells or beads pass a laser one at a time.
Test [5] has as its target T1, human CCR8. The test can be described thus: FACS on HEK293-human CCR8 cells. On the procedure:
(§1) Binding affinities of NG site removed antibodies were determined on human CCR8 and cynomolgus CCR8 overexpression cells. Briefly, CFSE labeled HEK293-human CCR8 cells or CFSE labeled HEK293-cynomolgus CCR8 cells were mixed with HEK293 cells. The mixed ratio was 1:1. A total of 5×10⁴ mixed cells for each well were seeded in 96-well plates and washed by FACS buffer (DPBS containing 1% FBS) once. Cells were incubated by serial diluted purified hybridoma antibodies for 1 hour at 4° C. Antibodies were prepared with 3-fold serial dilution ranging from 100 nM to 0.0017 nM or from 25.3165 nM to 0.0004 nM in FACS buffer. […] After primary antibody incubation, cells were washed by FACS buffer for three times. Then, cells were stained with secondary antibody (Alexa Flu647-conj gated rabbit anti-mouse IgG, Jackson ImmunoResearch, #315606046) at 1:600 dilution in FACS buffer, incubated for 0.5 hour at 4° C. […] FlowJo software was used for analysis. Data was plotted as the logarithm of antibody concentration versus mean fluorescence signals. EC₅₀ values were calculated in GraphPad Prism 8 (GraphPad Software) using a log (agonist) vs. response-Variable slope (4 parameters) curve fit.

Test [6] has as its target T2, cynomolgus CCR8. The test can be described thus: FACS on HEK293-cynomolgus CCR8 cells. On the procedure:
as §1
The source holds these as a separate data set.

Test [7] has as its target T1, human CCR8. The test can be described thus: FACS, competition with AF647-human CCL1 on CHO-K1-human CCR8 cells. As to the method: Blocking curves were generated to rank the blocking activities of PTM sites removed antibodies. Briefly, a total of 5×10⁴ CHO-K1-human CCR8 cells for each well were seeded in 96-well plate. Cells were incubated by series diluted purified hybridoma antibodies and 4 nM AF647 labeled human CCL1 (Almac, #CAF-07) for 1 hour at 4° C. Antibodies were prepared with 3-fold serial dilution ranging from 100 nM to 0.0051 nM in FACS buffer. Then, cells were washed by FACS buffer for three times after incubation. […] FlowJo software was used for analysis. Data was plotted as the logarithm of antibody concentration versus mean fluorescence signals. IC₅₀ values were determined in GraphPad Prism 8 (GraphPad Software) using a log(agonist) vs. response-Variable slope (4 parameters) curve fit.

Where two headings read alike, the source gives them in different places.

T1 sequence (P51685 whole entry): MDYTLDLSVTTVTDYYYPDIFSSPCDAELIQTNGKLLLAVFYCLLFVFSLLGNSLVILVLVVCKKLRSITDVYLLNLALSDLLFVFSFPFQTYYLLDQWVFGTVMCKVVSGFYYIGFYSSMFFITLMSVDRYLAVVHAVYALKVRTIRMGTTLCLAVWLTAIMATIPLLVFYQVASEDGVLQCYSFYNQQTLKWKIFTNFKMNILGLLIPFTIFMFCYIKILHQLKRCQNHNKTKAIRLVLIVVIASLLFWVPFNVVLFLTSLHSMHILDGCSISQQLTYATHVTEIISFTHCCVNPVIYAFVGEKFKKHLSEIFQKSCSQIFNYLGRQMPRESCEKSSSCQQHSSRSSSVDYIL
T2 sequence (G7NYJ2 entry or part of it): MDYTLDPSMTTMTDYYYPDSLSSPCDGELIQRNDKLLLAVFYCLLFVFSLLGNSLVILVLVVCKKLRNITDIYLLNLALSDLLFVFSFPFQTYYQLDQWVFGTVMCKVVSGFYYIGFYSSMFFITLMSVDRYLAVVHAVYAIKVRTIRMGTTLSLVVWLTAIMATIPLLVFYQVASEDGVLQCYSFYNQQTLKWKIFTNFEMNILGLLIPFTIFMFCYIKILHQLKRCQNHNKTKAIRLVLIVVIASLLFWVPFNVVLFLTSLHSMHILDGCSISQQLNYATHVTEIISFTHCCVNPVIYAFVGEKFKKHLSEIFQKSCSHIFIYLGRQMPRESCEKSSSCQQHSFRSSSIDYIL

B1: Hu149-16 (antibody, human IgG1, V domains shown)
VH: EVQLVESGGGLVQPGGSLKLSCAASGFTFNTYAMNWVRQASGKGLEWVGRIRSKSNFYATAYAASVKGRFTISRDDSKNTAYLQMNSLKTEDTAVYYCTRGRDYGSSYAMDYWGQGTLVTVSS
VL: DIVMTQSPLSLPVTPGEPASISCRSSKSLLHSNANTYLYWFLQKPGQSPQLLIYRMSNLASGVPDRFSGSGSGTDFTLKISRVEAEDVGVYYCMQHLKYPLTFGGGTKVELK
notes: human IgG1
Consider B1, for which the results for the EC50 in test [1] and in test [2] were 0.0659 nM and 0.142 nM, respectively. Also, the entries for the “Max MFI” value in test [1], in test [2] and in test [3] were 672000 MFI, 3.8e+06 MFI and 228000 MFI, respectively. Moreover, in test [4], the IC50 (as a rule, the midpoint of a concentration-inhibition curve) turned out to be 0.114 nM. For the same molecule, the “Max Inhibition (%)” value in test [4] was 101%.

B2: Hu149-21 (antibody, human IgG1, V domains shown)
VH: EVQLVESGGGLVQPGGSLKLSCAASGFTFNTYAMNWVRQASGKGLEWVGRIRSKSNFYATAYAASVKGRFTISRDDSKNTAYLQMNSLKTEDTAVYYCTRGREYGRSYAMDYWGQGTLVTVSS
VL: DIVMTQSPLSLPVTPGEPASISCRSSKSLLHSNANTYLYWFLQKPGQSPQLLIYRMSNLASGVPDRFSGSGSGTDFTLKISRVEAEDVGVYYCMQHLKYPLTFGGGTKVELK
notes: human IgG1
On to B2, for which the results for the EC50 in test [1] and in test [2] were 0.642 nM and 0.946 nM, respectively. Moreover, the figures for the “Max MFI” value in test [1], in test [2] and in test [3] were 794000 MFI, 4.15e+06 MFI and 240000 MFI, respectively. Further, the IC50 in test [4] is 0.796 nM. In addition, in test [4], the “Max Inhibition (%)” value is 101%.

B3: Hu149-24 (antibody, human IgG1, V domains shown)
VH: EVQLVESGGGLVQPGGSLKLSCAASGFTFNTYAMNWVRQAPGKGLEWVGRIRSKSNFYATAYAASVKGRFTISRDDSKNTAYLQMNSLKTEDTAVYYCTRGKEYGSSYAMDYWGQGTLVTVSS
VL: DIVMTQSPLSLPVTPGEPASISCRSSKSLLHSNANTYLYWFLQKPGQSPQLLIYRMSNLASGVPDRFSGSGSGTDFTLKISRVEAEDVGVYYCMQHLKYPLTFGGGTKVELK
notes: human IgG1
As to B3, in test [1], the EC50 (as a rule, the concentration that produces a half-maximal response) worked out at 0.166 nM and the “Max MFI” value was 844000 MFI. Also, in test [2], the response was half-maximal at 0.161 nM (EC50) and the “Max MFI” value was found to be 3.9e+06 MFI. Moreover, the “Max MFI” value in test [3] stood at 198000 MFI. In test [4], the half-inhibitory concentration (IC50) was 0.172 nM and the “Max Inhibition (%)” value was 106%.

B4: Hu149-23 (antibody, human IgG1, V domains shown)
VH: EVQLVESGGGLVQPGGSLKLSCAASGFTFNTYAMNWVRQAPGKGLEWVGRIRSKSNFYATAYAASVKGRFTISRDDSKNTAYLQMNSLKTEDTAVYYCTRGREYGSSYAMDYWGQGTLVTVSS
VL: DIVMTQSPLSLPVTPGEPASISCRSSKSLLHSNANTYLYWFLQKPGQSPQLLIYRMSNLASGVPDRFSGSGSGTDFTLKISRVEAEDVGVYYCMQHLKYPLTFGGGTKVELK
notes: human IgG1
Consider B4, for which, in test [1], the response was half-maximal at 0.265 nM (EC50) and the “Max MFI” value amounted to 816000 MFI. In addition, in test [2], a half-maximal effect (EC50) was put at 0.369 nM and the “Max MFI” value worked out at 4.32e+06 MFI. The “Max MFI” value in test [3] was 161000 MFI. In addition, in test [4], the IC50 stood at 0.259 nM and the “Max Inhibition (%)” value is 103%.

B5: Hu149-20 (antibody, human IgG1, V domains shown)
VH: EVQLVESGGGLVQPGGSLKLSCAASGFTFNTYAMNWVRQASGKGLEWVGRIRSKSNFYATAYAASVKGRFTISRDDSKNTAYLQMNSLKTEDTAVYYCTRGKEYGSSYAMDYWGQGTLVTVSS
VL: DIVMTQSPLSLPVTPGEPASISCRSSKSLLHSNANTYLYWFLQKPGQSPQLLIYRMSNLASGVPDRFSGSGSGTDFTLKISRVEAEDVGVYYCMQHLKYPLTFGGGTKVELK
notes: human IgG1
On to B5, for which, in test [1], the half-maximal effective concentration (EC50) came out at 0.129 nM and the “Max MFI” value was 751000 MFI. In test [2], the concentration giving a half-maximal response (EC50) was found to be 0.158 nM and the “Max MFI” value was found to be 4.02e+06 MFI. The “Max MFI” value in test [3] is 253000 MFI. In addition, in test [4], the IC50 turned out to be 0.147 nM and the “Max Inhibition (%)” value was 100%.

B6: Hu149-17 (antibody, human IgG1, V domains shown)
VH: EVQLVESGGGLVQPGGSLKLSCAASGFTFNTYAMNWVRQASGKGLEWVGRIRSKSNFYATAYAASVKGRFTISRDDSKNTAYLQMNSLKTEDTAVYYCTRGRDYGSSYAMDYWGQGTLVTVSS
VL: DIVMTQSPLSLPVTPGEPASISCRSSKSLLHSNANTYLYWFLQKPGQSPQLLIYRMSNLASGVPDRFSGSGSGTDFTLKISRVEAEDVGVYYCMQHLSYPLTFGGGTKVELK
notes: human IgG1
In the case of B6, the concentration giving a half-maximal response (EC50) in test [1] amounted to 0.0755 nM; in test [2], 0.123 nM. Further, the “Max MFI” value is 645000 MFI in test [1], 4.11e+06 MFI in test [2] and 29600 MFI in test [3]. Besides, the half-inhibitory concentration (IC50) in test [4] is 0.0698 nM. In addition, the “Max Inhibition (%)” value in test [4] amounted to 100%.

B7: Hu149-22 (antibody, human IgG1, V domains shown)
VH: EVQLVESGGGLVQPGGSLKLSCAASGFTFNTYAMNWVRQASGKGLEWVGRIRSKSNFYATAYAASVKGRFTISRDDSKNTAYLQMNSLKTEDTAVYYCTRGREYGSAYAMDYWGQGTLVTVSS
VL: DIVMTQSPLSLPVTPGEPASISCRSSKSLLHSNANTYLYWFLQKPGQSPQLLIYRMSNLASGVPDRFSGSGSGTDFTLKISRVEAEDVGVYYCMQHLKYPLTFGGGTKVELK
notes: human IgG1
Consider B7, for which, in test [1], the concentration giving a half-maximal response (EC50) is 0.216 nM and the “Max MFI” value came to 793000 MFI. Moreover, in test [2], the half-maximal effective concentration (EC50) was determined as 0.462 nM and the “Max MFI” value came to 4.25e+06 MFI. For the same molecule, the “Max MFI” value in test [3] was 173000 MFI. Further, in test [4], the concentration for half-maximal inhibition (IC50) turned out to be 0.459 nM and the “Max Inhibition (%)” value came to 101%.

B8: Hu149-19 (antibody, human IgG1, V domains shown)
VH: EVQLVESGGGLVQPGGSLKLSCAASGFTFNTYAMNWVRQASGKGLEWVGRIRSKSNFYATAYAASVKGRFTISRDDSKNTAYLQMNSLKTEDTAVYYCTRGREYGSSYAMDYWGQGTLVTVSS
VL: DIVMTQSPLSLPVTPGEPASISCRSSKSLLHSNANTYLYWFLQKPGQSPQLLIYRMSNLASGVPDRFSGSGSGTDFTLKISRVEAEDVGVYYCMQHLKYPLTFGGGTKVELK
notes: human IgG1
For B8, in test [1], the EC50 worked out at 0.161 nM and the “Max MFI” value worked out at 666000 MFI. In addition, in test [2], it took 0.214 nM to reach a half-maximal effect (EC50) and the “Max MFI” value is 3.95e+06 MFI. The “Max MFI” value in test [3] was found to be 187000 MFI. For the same molecule, in test [4], the half-inhibitory concentration (IC50) is 0.168 nM and the “Max Inhibition (%)” value was 100%.

B9: 149F2C10_G29A (antibody, V domains shown)
VH: EVQLVESGGGLVQPKGSLKLSCAASGFTFNTYAMNWVRQAPGKGLEWVARIRSKSNFYATYYADSVKDRFTISRDDSQDMLYLQMNILKTEDTAIYYCVRGRDYGSSYAMDYWGQGTSVTVSS
VL: DIVMTQAAPSVPVTPGESVSISCRSSKSLLHSNANTYLYWFLQRPGQSPQLLIYRMSNLASGVPDRFSGSGSGTAFTLRISRVEAEDVGVYYCMQHLEYPLTFGAGTKLELK
notes: NG site removed variant of 149F2C10
On to B9, for which, in test [5], it took 0.129 nM to reach a half-maximal effect (EC50) and the “Max MFI” value amounted to 2040 MFI. Also, in test [6], the EC50 came out at 0.173 nM and the “Max MFI” value stood at 4720 MFI. Besides, in test [7], the half-inhibitory concentration (IC50) turned out to be 0.725 nM and the “Max Inhibition (%)” value worked out at 77.5%.

B10: 149F2C10_G29I (antibody, V domains shown)
VH: EVQLVESGGGLVQPKGSLKLSCAASGFTFNTYAMNWVRQAPGKGLEWVARIRSKSNFYATYYADSVKDRFTISRDDSQDMLYLQMNILKTEDTAIYYCVRGRDYGSSYAMDYWGQGTSVTVSS
VL: DIVMTQAAPSVPVTPGESVSISCRSSKSLLHSNINTYLYWFLQRPGQSPQLLIYRMSNLASGVPDRFSGSGSGTAFTLRISRVEAEDVGVYYCMQHLEYPLTFGAGTKLELK
notes: as for B9
Turning to B10, in test [5], the half-maximal effective concentration (EC50) came out at 0.146 nM and the “Max MFI” value was found to be 2060 MFI. Further, in test [6], a half-maximal effect (EC50) was put at 0.19 nM and the “Max MFI” value turned out to be 4640 MFI. Moreover, in test [7], the IC50 turned out to be 1.09 nM and the “Max Inhibition (%)” value was 70.7%.
